Laboratory results from PMC4646333.

Tests used:
[1] = molecular target: R117A mutant of ferritin from Pyrococcus furiosus (R117A-PfFtn) (Pyrococcus furiosus) (UniProt Q8U2T8)
[2] = molecular target: wild-type ferritin from Pyrococcus furiosus (WT-PfFtn) (Pyrococcus furiosus) (UniProt Q8U2T8); assay: native gel or EMSA; native gel electrophoresis of apo protein; WT-PfFtn 5 μM monomer, R117A-PfFtn 4.3 or 80 μM monomer

Row | Substance | rate of Fe(II) oxidation (Fe(III) formation at 315 nm after addition of two Fe(II) per subunit), R117A-PfFtn against WT-PfFtn [1] [fold] | stoichiometry N [2]
1 | R117A mutant of ferritin from Pyrococcus furiosus (R117A-PfFtn) (from UniProt Q8U2T8 1-174) (natural protein) | > 100 | –
2 | wild-type ferritin from Pyrococcus furiosus (WT-PfFtn) (from UniProt Q8U2T8 1-174) (natural protein) | – | 24
